Test results reported in patent publication US20230348568A1 (US Dept. of Health and Human Services, published 2023).

Tests used:
[1] = target: Epstein-Barr virus glycoprotein 42 (gp42) (Epstein-Barr virus) (UniProt P03205); test: cell-based or functional assay
[2] = target: EBV gH/gL/gp42 heterotrimer (recombinant protein) (Epstein-Barr virus) (UniProt P03231); test: BLI cross-competition; gH/gL/gp42 on the biosensor pre-saturated with primary mAb A10, then binding of this secondary mAb measured; high value = secondary blocked
[3] = target: EBV gH/gL/gp42 heterotrimer (recombinant protein) (Epstein-Barr virus) (UniProt P03231); test: BLI cross-competition; gH/gL/gp42 on the biosensor pre-saturated with primary mAb 4C12, then binding of this secondary mAb measured; high value = secondary blocked
[4] = target: EBV gH/gL/gp42 heterotrimer (recombinant protein) (Epstein-Barr virus) (UniProt P03231); test: BLI cross-competition; gH/gL/gp42 on the biosensor pre-saturated with primary mAb F2-1, then binding of this secondary mAb measured (self pair); high value = secondary blocked
[5] = target: T1, Epstein-Barr virus glycoprotein 42 (gp42) (Epstein-Barr virus, UniProt P03205 34-223, limits assumed); test: cell-based or functional assay
T1 sequence: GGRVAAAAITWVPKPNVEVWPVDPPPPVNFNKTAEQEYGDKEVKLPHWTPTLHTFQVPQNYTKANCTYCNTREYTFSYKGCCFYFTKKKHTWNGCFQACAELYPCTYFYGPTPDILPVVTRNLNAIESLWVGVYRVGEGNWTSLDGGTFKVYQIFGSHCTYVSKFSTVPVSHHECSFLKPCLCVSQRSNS

[6] = target: T1, Epstein-Barr virus glycoprotein 42 …; test: cell-based or functional assay; remark: listed apart in the source
[7] = target: T1, Epstein-Barr virus glycoprotein 42 …; test: cell-based or functional assay; remark: listed apart in the source
[8] = target: T2, EBV gH/gL/gp42 heterotrimer (recombinant protein) (Epstein-Barr virus, UniProt P03231 19-679; P03212 23-137); test: BLI (Octet RED96e), biotinylated gH/gL/gp42 on streptavidin biosensors, Fab dilution series, 1:1 global fit
T2 construct: Recombinant complex; also called gH/gL/gh42

[9] = target: T2, EBV gH/gL/gp42 heterotrimer …; test: BLI, gH/gL/gp42 on the biosensor, dilution series of Fab (legend box shows 5.00E-07), 300 s association, dissociation to 1200 s

Question: Which results are given for “F2-1 monoclonal antibody (previously described murine anti-gp42 antibody)”?
Answer: IC50 titer to block glycoprotein-mediated B cell fusion [1]: 111 µg/mL; IC50 titer to neutralize EBV infection in B cells [1]: 0.584 µg/mL; cross-competition (name or unit not given) [2]: 100; cross-competition (name or unit not given) [3]: 8.9; cross-competition (name or unit not given) [4]: 95.4

B1: A10 monoclonal antibody (cynomolgus monkey variable regions on human IgG1 constant region) (antibody, V domains shown)
VH: QVQLQESGPGLVKPSQTLSLTCAISGDSVSSNSATWNWIRQSPSRGLEWLGRTYYRSKWYYDYAQSVQNRISINPDTSKNQFSLQLNSVTPEDMAVYYCARGDFDAFDFWGQGLRVTVSS
VL: SYELTQPPSVSAASGQTARITCGGDNIGSKNVQWYQQKPAQAPVLVIYADSKRPSGVPERFSGSNSGNTATLTISGVEAGDEADYYCQVWDRSSNIFGVGTRLTVLG
Question: Which results are given for B1?
Answer: effectiveness in blocking B cell fusion relative to F2-1 [5]: ~50 fold; neutralization potency relative to F2-1 [5]: ~14 fold; IC50 titer to neutralize EBV infection in B cells [6]: 0.0391 µg/mL; IC50 titer to block glycoprotein-mediated B cell fusion [7]: 2.41 µg/mL

B2: A10 Fab (Fab, V domains shown)
VH: B1 VH
VL: B1 VL
notes: Fab of A10
Question: Which “IC50 titer to block glycoprotein-mediated B cell fusion” value [7] does the source give for B2 here?
Answer: Its value is 1.73 µg/mL.

Question: And the Kd [8]?
Answer: The Kd was 0.149 nM.

Question: What about the koff [8] of the same molecule?
Answer: Its koff is 0.000227 s⁻¹.

Question: And the kon [8]?
Answer: Its kon is 1.54e+06 M⁻¹ s⁻¹.

B3: 4C12 Fab (Fab, V domains shown)
VH: EVQLQQSGPELVKPGASVKISCKASGYTFTDYNMHWVKQSHGKNLEWIGFIYLYNGGTGYNQNFKSKATLTVDNSSSTAYMELRSLTSEDSAVFYCARDYYGNPYAMDYWGQGTSVTVSS
VL: DIQMTQTTSSLSASLGDRVTISCRASQDISNYLNWYQQKPDGTVKLLIYYTSRLRSGVPSRFSGSGSGTDYSLTINNLEQEDIATYFCQQGNTLPFTFGSGTKLEIK
notes: Fab of mAb 4C12; how the Fab was made is not described
Question: Which Kd [9] does the source give for B3 here?
Answer: Its Kd is 57.9 nM.
